Assay [1] concerns the target recombinant mature human GDF-15 protein (SEQ ID No: 8) (human) (UniProt Q99988). As to the kind of experiment: Surface Acoustic Wave (SAW) gold chip biosensor.
Assay [2] concerns the target T1, recombinant mature human GDF-15 protein (SEQ ID No: 8) (human, UniProt Q99988 197-308).
T1 construct: also called recombinant human GDF-15; recombinant GDF-15
T1 sequence: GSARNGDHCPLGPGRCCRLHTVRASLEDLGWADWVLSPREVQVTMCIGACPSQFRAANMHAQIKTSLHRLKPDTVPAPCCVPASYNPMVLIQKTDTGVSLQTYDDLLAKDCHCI
Put plainly: Surface Acoustic Wave (SAW) gold chip biosensor; antibody as serum-free CHO culture supernatant.

Assay [3] deals with T1, recombinant mature human GDF-15 protein …. As to the kind of experiment: Surface Acoustic Wave (SAW) gold chip biosensor.
Assay [4] has the same target. Put plainly: Surface Acoustic Wave (SAW) gold chip biosensor. The source holds these as a separate data set.
Assay [5] has the same target. Put plainly: SPR (ProteOn XPR36), KD=koff/kon, insect-cell GDF-15 immobilised. The text has this: (§1) For preparing the biosensors recombinant mature human GDF-15 protein was immobilized on flow cells 1 and 2. On one flow cell recombinant GDF-15 derived from Baculvirus-transfected insect cells (HighFive insect cells) and on the other recombinant protein derived from expression in E. coli was used. The GLC sensor chip was activated using Sulfo-NHS (N-Hydroxysulfosuccinimide) and EDC (1-Ethyl-3-[3-dimethylaminopropyl]carbodiimide hydrochloride) (Bio-Rae ProteOn™ Amine Coupling Kit) according to the manufacturer's recommendation, the sensor surface was subsequently loaded with the proteins up to a density of about 600 RU (1 Ru=1 pg mm⁻²). The non-reacted coupling groups were then quenched by perfusion with 1M ethanolamine pH 8.5 and the biosensor was equilibrated by perfusing the chip with running buffer ([…], 150 mM NaCl, 3.4 mM EDTA, 0.005% Tween®20, pH 7.4, referred to as HBS150). As controls two flow cells were used, one empty with no protein coupled and one coupled with an non-physiological protein partner (human Interleukin-5), which was immobilized using the same coupling chemistry and the same coupling density. […] The resulting sensogram was analyzed using the software ProteOn Manager version 3.0. […]

For assay [6] the target is unchanged. Put plainly: SPR (ProteOn XPR36), insect-cell GDF-15 immobilised, antibody as analyte, 1:1 Langmuir, 25° C.
Source text: as §1

Assay [7] concerns the target human Interleukin-5 (human, UniProt P05113 20-134). As to the kind of experiment: SPR (ProteOn XPR36), IL-5 immobilised, antibody as analyte.
Source text: as §1

Assay [8] addresses T2, recombinant mature human GDF-15 protein derived from expression in E. coli (human, UniProt Q99988 195-308).
T2 construct: mature; also called GDF-15 derived from E. coli expression
T2 sequence (looked up): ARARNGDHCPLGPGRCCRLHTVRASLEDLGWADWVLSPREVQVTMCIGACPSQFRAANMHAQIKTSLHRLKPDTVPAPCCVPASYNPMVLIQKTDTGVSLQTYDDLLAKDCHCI
Put plainly: SPR (ProteOn XPR36), E. coli GDF-15 immobilised, antibody as analyte.
Source text: as §1

The text below walks through data of patent publication US20170204174A1 (published 2017).

human Interleukin-5, sequence (P05113 20-134 limits assumed): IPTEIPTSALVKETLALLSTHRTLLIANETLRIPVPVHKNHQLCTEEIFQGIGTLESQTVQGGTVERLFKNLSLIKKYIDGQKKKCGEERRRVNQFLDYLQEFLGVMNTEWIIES

Broadly, the Kd is the constant that tells how readily two partners part at equilibrium. For the molecule Rituxumab (control antibody), in assay [1], the Kd came out at 1120 nM.

B1: H1L5 humanized B1-23 anti-GDF-15 antibody (antibody, human IgG1, V domains shown)
VH: QITLKESGPTLVKPTQTLTLTCTFSGFSLSTSGMGVSWIRQPPGKGLEWLAHIYWDDDKRYNPTLKSRLTITKDPSKNQVVLTMTNMDPVDTATYYCARSSYGAMDYWGQGTLVTVSS
VL: DIVLTQSPSFLSASVGDRVTITCKASQNVGTNVAWFQQKPGKSPKALIYSASYRYSGVPDRFTGSGSGTEFTLTISSLQPEDFAAYFCQQYNNFPYTFGGGTKLEIKR
notes: Human IgG1 (trastuzumab backbone); also called H1L5 anti-GDF-15 antibody; humanized B1-23-H1L5 antibody
B1: the Kd in assay [2] was found to be 5.62 nM. Also, the “fold higher affinity than the murine B1-23 antibody” value in assay [3] was roughly 5 fold.

B2: murine monoclonal anti-human GDF-15 antibody mAb-B1-23 (antibody, V domains shown)
VH: QVKLQQSGPGILQSSQTLSLTCSFSGFSLSTSGMGVSWIRQPSGKGLEWLAHIYWDDDKRYNPTLKSRLTISKDPSRNQVFLKITSVDTADTATYYCARSSYGAMDYWGQGTSVTVSS
VL: DIVLTQSPKFMSTSVGDRVSVTCKASQNVGTNVAWFLQKPGQSPKALIYSASYRYSGVPDRFTGSGSGTDFTLTISNVQSEDLAEYFCQQYNNFPYTFGGGTKLEIKR
notes: also called anti-human GDF-15 mAb-B1-23; B1-23 anti-GDF-15 antibody (murine, IgG2a)
As usually defined, the koff is the first-order rate constant of dissociation. Usually kon stands for the rate constant with which the complex forms. Take B2: the dissociation constant Kd in assay [4] was found to be 28.8 nM. Further, the Kd in assay [5] is roughly 0.79 nM. Besides, in assay [6], the off-rate (koff) is 0.00043 s⁻¹ and the association rate constant (kon) stood at 540000 M⁻¹ s⁻¹. Further, the binding result in assay [7] is “no binding (tested: 0.4, 0.8, 3, 12, 49 and 98 nM)”. Also, the “factor by which the affinity differs from that for insect-cell GDF-15” value in assay [8] is less than 2 fold.

B3: chimeric anti-human GDF-15 mAb-B1-23 antibody (antibody, human IgG1, kappa, V domains shown)
VH: QVKLQQSGPGILQSSQTLSLTCSFSGFSLSTSGMGVSWIRQPSGKGLEWLAHIYWDDDKRYNPTLKSRLTISKDPSRNQVFLKITSVDTADTATYYCARSSYGAMDYWGQGTSVTVSS
VL: DIVLTQSPKFMSTSVGDRVSVTCKASQNVGTNVAWFLQKPGQSPKALIYSASYRYSGVPDRFTGSGSGTDFTLTISNVQSEDLAEYFCQQYNNFPYTFGGGTKLEIKR
notes: Murine variable domains, constant domains of a human IgG1 (trastuzumab backbone); also called Chimeric B1-23 anti-GDF-15 antibody; chimeric B1-23
Regarding B3, the Kd in assay [4] was 14 nM. Also, the “fold higher affinity than the murine B1-23 antibody” value in assay [3] was roughly 2 fold.
